Results reported in the supplement of paper PMC10567573.
± gives the standard deviation.

Test: protein stability index of a GFP-peptide fusion (GPS, HEK-293T) (PSI 1-6); higher = more stable
[1] = treatment: DMSO, c terminus: a fixed tail appended
[2] = treatment: MLN4924 1 uM, 8 h, c terminus: a fixed tail appended
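Note: 24-mer peptide tiles fused after GFP, lentivirally expressed, FACS-sorted into six equal bins by GFP/DsRed ratio, decoded by Illumina sequencing, PSI is the read-weighted mean bin number.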

Row | Sequence | protein stability index [1] | protein stability index [2] | protein stability index (treatment: DMSO, c terminus: native) | protein stability index (treatment: MLN4924 1 uM, 8 h, c terminus: native)
1 | PQFLHEGLSKPVYVINWFMSFGPE [FAM104B] | 2.68 ± 0.71 | 2.97 ± 1.2 |  | 
2 | EIALAPYQHLEEDMKSLKQVLEMK [MTUS2] | 3.62 ± 0.17 | 3.65 ± 0.49 |  | 
3 | LALRGRLQLEACGMRRKSLLTRKV [GOLPH3] | 2.26 ± 0.13 | 2.41 ± 0.21 |  | 
4 | YLLQWLKSDKALMMLFNDGTFQVN [PLK2] | 2.73 ± 0.53 | 2.53 ± 0.51 |  | 
5 | DQPVMAVKTGEDGSNLDDAKGLAE [FANCE] | 5.44 ± 0.14 | 5.51 ± 0.26 |  | 
6 | STESDKPTTGRVYESDSSNHCMLS [C18orf25] | 4.88 ± 0.2 | 4.89 ± 0.32 |  | 
7 | AESFLLKSPIAPCSLDKRVILIFH [CDC25B] | 2.75 ± 0.73 | 2.68 ± 0.96 |  | 
8 | SVEAGGSVHFDGETIEGAPPLWAA [FEM1A] | 4.09 ± 0.15 | 4.12 ± 0.48 |  | 
9 | AVGAAAEAEADEEADPPASDLPTP [SNX8] | 5.5 ± 0.27 | 5.56 ± 0.19 |  | 
10 | LLKRIKKCCGMRNTDVSMENMVTV [KCNK9] | 2.22 ± 0.52 | 2.32 ± 0.25 |  | 
11 | RDGYGMTPLLAASVTGHTNIVEYL [FEM1A] | 2.92 ± 0.22 | 2.93 ± 0.24 |  | 
12 | NEKETMQSLNDRLASYLDRVRSLE [KRT18] | 3.61 ± 0.23 | 3.54 ± 0.28 |  | 
13 | PPDRTLGCWATDAAPAAGLCGAGS [RSPH3] | 3.79 ± 0.15 | 3.71 ± 0.32 |  | 
14 | EEEKEPLAVDSWWLDPGHTAVAQA [SERTAD1] | 4.8 ± 0.27 | 4.88 ± 0.23 |  | 
15 | LLTSPRAINNLVLQGCSSIGLRLV [KLHL14] | 2.92 ± 0.53 | 2.74 ± 0.69 |  | 
16 | VWAHNLIAIARLRGSDLKVLEVTE [FBXO33] | 2.63 ± 0.85 | 2.95 ± 1.1 |  | 
17 | TFGNSTLALGPGESLPHRLSCLGQ [PLAGL1] | 3.19 ± 0.18 | 3.29 ± 0.18 |  | 
18 | LRVRELQRKVDGIQKAYDELRLQS [CCDC89] | 3.16 ± 0.13 | 3.42 ± 0.39 |  | 
19 | DENLDRMVPISKQPKEKIQAIIES [NOL4L] | 4.88 ± 0.38 | 4.83 ± 0.21 |  | 
20 | AGLDWQSLGQMKELGVIFYNCSCL [PLD5] | 3.12 ± 0.15 | 3.26 ± 0.43 |  | 
21 | SGCSSELKNRMEYALNMLLQRCN [PLK2] |  |  | 3.57 ± 0.15 | 3.77 ± 0.12
22 | VGVATARAPLHSVGYTALVGSDAE [SPSB4] | 4.35 ± 0.19 | 4.38 ± 0.3 |  | 
23 | SGGSGGRGTGQLNRFVQLSGRPHL [KLHDC10] | 3.48 ± 0.28 | 3.65 ± 0.16 |  | 

Row | Sequence | protein stability index [1] | protein stability index [2] | protein stability index (treatment: DMSO, c terminus: native) | protein stability index (treatment: MLN4924 1 uM, 8 h, c terminus: native)
24 | KSYNICFELEDSNEIFTQLYRTLF [PDS5B] | 3.05 ± 0.83 | 2.87 ± 0.61 |  | 
25 | SLGYGFVNYSDPNDADKAINTLNG [ELAVL3] | 3.76 ± 0.22 | 3.98 ± 0.18 |  | 
26 | VTGLNPKTKYILLMDIVPADDHRY [TBX5] | 2.63 ± 0.44 | 1.95 ± 0.53 |  | 
27 | DQVMEFSWSALWNITDETPDNCEM [ZER1] | 4.12 ± 0.27 | 4.04 ± 0.5 |  | 
28 | LVRGHRRRLLRRLSPSRGVAQCLR [ZSWIM9] | 3.2 ± 0.23 | 3.41 ± 0.25 |  | 
29 | TSEQAPSSAPRDVQARMLSSTTIL [PTPRD] | 4.08 ± 0.15 | 4.03 ± 0.38 |  | 
30 | ERLAHSRAAAAAAVAAATAAVEGS [KCNA4] | 4.38 ± 0.2 | 4.25 ± 0.29 |  | 
31 | QDLVELYLTNCEKLSAKSLQTLRS [ZER1] | 2.1 ± 0.2 | 2.54 ± 0.21 |  | 
32 | DEHEHPLTSELDPEKEQEIETIKI [MIA2] | 5.33 ± 0.42 | 5.36 ± 0.42 |  | 
33 | AEDYLTWKEWGFTGVQEVLSALLR [SPAG8] | 2.28 ± 0.33 | 2.19 ± 0.4 |  | 
34 | DITAYLFGFFFGRTPLIKLSPKKT [CDS1] | 3.11 ± 0.64 | 2.73 ± 0.46 |  | 
35 | KKCGRENWTVAFAPDGSYFAWSQG [WSB1] | 2.33 ± 0.53 | 2.22 ± 0.31 |  | 
36 | YYYTKVMSELFLHTPSDTGVSFQA [PKD2L1] | 2.74 ± 0.59 | 2.67 ± 0.64 |  | 
37 | ISKSLELCNEISLSEIKDAPKVNA [DLC1] | 4.12 ± 0.39 | 4.21 ± 0.066 |  | 
38 | NIRPSSSGGYWVGMSTIRPNPGFS [APMAP] | 2.61 ± 1 | 2.65 ± 0.37 |  | 
39 | APAHVDEQVFLYENARSGAEAEPE [ZBED1] | 5.58 ± 0.21 | 5.51 ± 0.28 |  | 
40 | TALKKWMFLQLVPSWNGSLKQLLT [GMCL1] | 2.74 ± 0.56 | 2.43 ± 0.43 |  | 
41 | SIRLPLDAPLPGSKAKPKPPKQAQ [TBC1D10A] | 4.36 ± 0.09 | 4.72 ± 0.11 |  | 
42 | DFTTAAEDQPINLCDKLPPATALG [NOL4L] | 4.83 ± 0.18 | 4.78 ± 0.1 |  | 
43 | SSGKVLPKWGWEQLEVTCTPYLKE [POMT2] | 2.64 ± 0.33 | 2.67 ± 0.33 |  | 
44 | SLLFVVMFIPETKGCSLEQISMEL [SLC2A12] | 2.93 ± 0.53 | 3.2 ± 0.13 |  | 
45 | FYMRTNPFYPEVELNFISVFWPQL [MMP1] | 3.11 ± 0.38 | 2.89 ± 0.25 |  | 
46 | RHLTSRHQEAEMAQNAVRLHYGLP [CTNNB1] | 3.71 ± 0.14 | 3.73 ± 0.25 |  | 

Row | Sequence | protein stability index [1] | protein stability index [2] | protein stability index (treatment: DMSO, c terminus: native) | protein stability index (treatment: MLN4924 1 uM, 8 h, c terminus: native)
47 | ALKMTWHVHCFTCAACKTPIRNRA [PDLIM7] | 2.5 ± 0.51 | 2.3 ± 0.58 |  | 
48 | DKCMVCGGDGSGCSKQSGSFRKFR [ADAMTS4] | 2.14 ± 0.11 | 3.25 ± 0.85 |  | 
49 | EAEVTILFYFFLYQYCSIHCSDRK [CSTF3] | 2.57 ± 0.56 | 2.53 ± 0.15 |  | 
50 | YFDPLRNEYFFDRNRPSFDAILYY [KCNA3] | 2.62 ± 0.54 | 2.44 ± 0.32 |  | 
51 | MRDQYMRAGEGFIICYSITDRRSF [RIT1] | 2.37 ± 0.82 | 2.11 ± 0.38 |  | 
52 | IIHVVKDQLIGQGIIVKDARLNGS [TENT5D] | 2.2 ± 0.18 | 2.25 ± 0.72 |  | 
53 | LGHPALSQEEGKSALEDQGSNPSS [PPFIA4] | 5.59 ± 0.21 | 5.25 ± 0.91 |  | 
54 | IKSDEECRDLVDEAKNYLLLPQER [KLHL20] | 4.68 ± 0.14 | 4.64 ± 0.13 |  | 
55 | GNEKSIIDCKFNAESQGCNHEEDA [LOXL2] | 5.65 ± 0.23 | 5.57 ± 0.47 |  | 
56 | ALSYAQHTRQLISCGGDGGIVVWN [WDFY2] | 2.16 ± 0.47 | 2.12 ± 0.23 |  | 
57 | ELVLVSAGFDAARGDPLGGCQVSP [HDAC6] | 2.89 ± 0.27 | 3.14 ± 0.35 |  | 
58 | KPLTLEALGHLGNDDSADYQHFLQ [DLC1] | 4.23 ± 0.12 | 4.33 ± 0.15 |  | 
59 | EQGFQEGVPNASVIMQVPERIVVA [MFF] | 3.76 ± 0.35 | 3.83 ± 0.042 |  | 
60 | KQIAVAITEALRPAGVGVVVEATH [GCH1] | 2.37 ± 0.28 | 2.42 ± 0.25 |  | 
61 | MGANTSRKPPVFDENEDVNFDHFE [STK32A] | 5.11 ± 0.26 | 5.134 ± 0.042 |  | 
62 | DYQPTQAGRLMRPSVKYLSHPRVQ [RNF180] | 3.34 ± 0.22 | 3.4 ± 0.12 |  | 
63 | EGLGQSLGNFKDDLLNVCMRHVEK [TRIM29] | 3.62 ± 0.27 | 3.78 ± 0.27 |  | 
64 | CNFSIPEELEFQYRRVNELLLSIL [ZER1] | 2.34 ± 0.44 | 2.32 ± 0.42 |  | 
65 | LSGVSCFVMFLCLADYLVPILAPR [ARL6IP1] | 3.5 ± 0.071 | 3.37 ± 0.44 |  | 
66 | KHLTDTSHGVRNKCLQLLGNLGSL [INTS4] | 2.45 ± 0.4 | 2.46 ± 0.42 |  | 
67 | NCQSVAQMNLLQKYSLLKLTALLE [DLC1] | 2.25 ± 0.36 | 2.44 ± 0.11 |  | 
68 | FGRLVANVLKSYIGLGHIYSGTFA [CLCN6] | 2.94 ± 0.42 | 2.79 ± 0.33 |  | 
69 | SKLVPAIQNAHKNSTGSGRGKKLM [TPRG1] | 4.6 ± 0.24 | 4.58 ± 0.16 |  | 

Row | Sequence | protein stability index [1] | protein stability index [2] | protein stability index (treatment: DMSO, c terminus: native) | protein stability index (treatment: MLN4924 1 uM, 8 h, c terminus: native)
70 | DETGITVASLERFSTYTSDKDENK [ZC3H15] | 5.14 ± 0.3 | 5.29 ± 0.087 |  | 
71 | EVRLVPVSFEDPEFKSSFSQSFSL [ATE1] | 2.56 ± 0.41 | 2.74 ± 0.39 |  | 
72 | SELGDYDPDECGSDYISEFRFAPN [EPB41L3] | 2.22 ± 0.34 | 3.12 ± 0.78 |  | 
73 | SARIVQVVTAEAVAVLKGEQEKEA [MAP2] | 4.82 ± 0.11 | 4.81 ± 0.21 |  | 
74 | ADLLAGFGGSFMAPSPSPVTPAQN [SNAP91] | 4.16 ± 0.38 | 4.28 ± 0.24 |  | 
75 | PDPSVWSRRYTEMALPFFSLAEVR [MYORG] | 2.52 ± 0.31 | 2.45 ± 0.13 |  | 
76 | LMMRGVKHHNLEGLRKRIATLFFH [IQUB] | 2.34 ± 0.62 | 2.52 ± 0.7 |  | 
77 | LSLFVQKLGNLMSLDISGHMILEN [ZER1] | 3.24 ± 0.06 | 3.42 ± 0.48 |  | 
78 | LSDSGAFRRSLHDPDGLVATYISE [APMAP] | 4.12 ± 0.2 | 4.02 ± 0.23 |  | 
79 | DGHIDINEFLEAFRLVEKSCPEGD [PPEF2] | 4.67 ± 0.37 | 4.71 ± 0.17 |  | 
80 | CYLELFPAHLYFQAHGSEGLTFQG [PLEKHN1] | 2.89 ± 0.53 | 2.31 ± 0.26 |  | 
81 | EAQRASFLQNAVLAYVQASPVRTL [LRRC45] | 2.41 ± 0.29 | 2.3 ± 0.26 |  | 
82 | EGLELTEQTFSPAKSLSFRKGELV [ADD1] | 4 ± 0.39 | 4.2 ± 0.34 |  | 
83 | PHVIVSTTGPNPFTTLTDRELEEY [ADD1] | 4.83 ± 0.17 | 4.91 ± 0.091 |  | 
84 | FPVSVTQQSPAAVSMETYHVTLTL [C2CD2L] | 3.29 ± 0.38 | 2.9 ± 0.36 |  | 
85 | RLFLVEDLVDSLKLAVFMWLMTYV [RTN3] | 2.72 ± 0.65 | 2.64 ± 0.78 |  | 
86 | DLEAVVPQNGSETGWARKGLGNTW [ATP23] | 3.42 ± 0.2 | 3.38 ± 0.44 |  | 
87 | SHKGAEELALALKGNTTLQQLDLR [LRRC45] | 3.99 ± 0.18 | 4.17 ± 0.65 |  | 
88 | LPGGTTGLQLPSTLPVSGNLLDVY [TFE3] | 3.24 ± 0.31 | 3.23 ± 0.17 |  | 
89 | PLHVHEEEGILVAVGQDCYTRIWS [DCAF4] | 2.67 ± 0.3 | 2.74 ± 0.43 |  | 
